Assay results taken from PMC4658703.
Where two headings read alike, the source gives them in different places.

Experiments:
Experiment in all cases: SPR
[1] = target: Human IGF2 (human)
[2] = target: Echidna IGF2 (peak 2), purified recombinant (echidna)
[3] = target: Chicken IGF2 (chicken) (UniProt P33717)
[4] = target: Human IGF2 (human); remark: listed apart in the source
[5] = target: Echidna IGF2 (peak 2), purified recombinant (echidna); remark: listed apart in the source
[6] = target: Chicken IGF2 (chicken) (UniProt P33717); remark: listed apart in the source
[7] = target: Human IGF2 (human); remark: listed apart in the source
[8] = target: Echidna IGF2 (peak 2), purified recombinant (echidna); remark: listed apart in the source

Sequence of Chicken IGF2 (chicken) (P33717 24-91): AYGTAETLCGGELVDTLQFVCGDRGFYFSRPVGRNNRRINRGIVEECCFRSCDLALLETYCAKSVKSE
Sequence of Human IGF2R domain 11 (wild type) (P11717 1508-1650): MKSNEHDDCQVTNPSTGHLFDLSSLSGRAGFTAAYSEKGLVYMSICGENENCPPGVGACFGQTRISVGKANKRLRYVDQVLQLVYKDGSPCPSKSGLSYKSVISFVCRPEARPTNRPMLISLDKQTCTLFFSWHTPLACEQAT

| Kd [1] [nM] | kd1 (two state model, first step) [1] [s⁻¹] | Kd [2] [nM] | kd1 (two state model, first step) [2] [s⁻¹] | Kd [3] [nM] | ka1 (two state model, first step) [3] [m^-1 s^-1] | Kd [4] [nM] | Kd [5] [nM] | Kd [6] [nM] | Kd [7] [nM] | Kd [8] [nM] | kd1 (two state model, first step) [3] [s⁻¹] | ka1 (two state model, first step) [1] [m^-1 s^-1] | Substance |
| --- | --- | --- | --- | --- | --- | --- | --- | --- | --- | --- | --- | --- | --- |
| 130 | 0.108 | 135 | 0.106 | 171 | 1.76e+06 | 164 | 157 | 219 | – | – | – | – | Opossum IGF2R domain 11 (domain or fragment) |
| 427 | – | – | – | – | – | – | – | – | 325 | 328 | – | – | Chicken IGF2R domain 11 with echidna CD loop (domain or fragment) |
| 244 | 0.106 | 256 | 0.138 | 244 | – | 329 | 385 | 412 | – | – | 0.259 | – | Echidna IGF2R domain 11 (domain or fragment) |
| 15.3 | 0.044 | – | – | – | – | 15.5 | – | – | – | – | – | 2.76e+06 | Human IGF2R domain 11^(E1544K, K1545S, L1547V) (clone E4) (from UniProt P11717 1508-1650) (domain or fragment) |
| 46 | 0.23 | 53 | 0.106 | – | – | 64 | 77 | – | – | – | – | 5e+06 | Human IGF2R domain 11 (wild type) (from UniProt P11717 1508-1650) (domain or fragment) |
